B1: Homo sapiens NudT16 (HsNudT16) (enzyme, human)
chain: MAGARRLELGEALALGSGWRHVCHALLYAPDPGMLFGRIPLRYAILMQMRFDGRLGFPGGFVDTQDRSLEDGLNRELREELGEAAAAFRVERTDYRSSHVGSGPRVVAHFYAKRLTLEELLAVEAGATRAKDHGLEVLGLVRVPLYTLRDGVGGLPTFLENSFIGSAREQLLEALQDLGLLQSGSISGLKIPAHH
notes: carries A22V as in the Mammalian Gene Collection clone BC031215; subcloned in pNIC28-BSA4; Dimer in solution (SEC) and in the crystal; also called wild-type HsNudT16; native HsNudT16; source: E. coli CodonPlus RIPL, purified (Ni-NTA, TEV cleavage, anion exchange, SEC); not shown: His6, N-terminal, cleaved
B2: HsNudT16 H24W (enzyme, human)
chain: MAGARRLELGEALALGSGWRHVCWALLYAPDPGMLFGRIPLRYAILMQMRFDGRLGFPGGFVDTQDRSLEDGLNRELREELGEAAAAFRVERTDYRSSHVGSGPRVVAHFYAKRLTLEELLAVEAGATRAKDHGLEVLGLVRVPLYTLRDGVGGLPTFLENSFIGSAREQLLEALQDLGLLQSGSISGLKIPAHH
notes: also called H24W mutant; source: E. coli CodonPlus RIPL, purified (Ni-NTA, TEV cleavage, anion exchange, SEC); not shown: His6, N-terminal, cleaved
B3: HsNudT16 F61S (enzyme, human)
chain: MAGARRLELGEALALGSGWRHVCHALLYAPDPGMLFGRIPLRYAILMQMRFDGRLGFPGGSVDTQDRSLEDGLNRELREELGEAAAAFRVERTDYRSSHVGSGPRVVAHFYAKRLTLEELLAVEAGATRAKDHGLEVLGLVRVPLYTLRDGVGGLPTFLENSFIGSAREQLLEALQDLGLLQSGSISGLKIPAHH
notes: also called F61S mutant; source: E. coli CodonPlus RIPL, purified (Ni-NTA, TEV cleavage, anion exchange, SEC); not shown: His6, N-terminal, cleaved

Molecular target: the molecule itself
Test: SEC; Superdex 75 10/300; 100 µL of each purified protein loaded at 0.3 mL/min, eluted over one column volume; Bio-Rad size standards; dimer to monomers

Stoichiometry N, 2:
B1
B2
B3

Source: publication PMC6459841, “Structural analyses of NudT16–ADP-ribose complexes direct rational design of mutants with improved processing of poly(ADP-ribosyl)ated proteins” (Scientific Reports, 2019)
